These results are taken from PMC8238519 (Biochemical Journal, 2021).

Assay [1] deals with Chlamydomonas reinhardtii photosystem I PsaA-Asp648Arg (Chlamydomonas reinhardtii) (UniProt P12154).
Another assay concerns the target pea PsaA (Pisum sativum (pea), UniProt P05310 16-758). Description: cryo-EM structure.
The next assay deals with pea PsaB (Pisum sativum (pea), UniProt P05311 13-734). In words: cryo-EM structure.
pea PsaB, sequence (P05311 13-734): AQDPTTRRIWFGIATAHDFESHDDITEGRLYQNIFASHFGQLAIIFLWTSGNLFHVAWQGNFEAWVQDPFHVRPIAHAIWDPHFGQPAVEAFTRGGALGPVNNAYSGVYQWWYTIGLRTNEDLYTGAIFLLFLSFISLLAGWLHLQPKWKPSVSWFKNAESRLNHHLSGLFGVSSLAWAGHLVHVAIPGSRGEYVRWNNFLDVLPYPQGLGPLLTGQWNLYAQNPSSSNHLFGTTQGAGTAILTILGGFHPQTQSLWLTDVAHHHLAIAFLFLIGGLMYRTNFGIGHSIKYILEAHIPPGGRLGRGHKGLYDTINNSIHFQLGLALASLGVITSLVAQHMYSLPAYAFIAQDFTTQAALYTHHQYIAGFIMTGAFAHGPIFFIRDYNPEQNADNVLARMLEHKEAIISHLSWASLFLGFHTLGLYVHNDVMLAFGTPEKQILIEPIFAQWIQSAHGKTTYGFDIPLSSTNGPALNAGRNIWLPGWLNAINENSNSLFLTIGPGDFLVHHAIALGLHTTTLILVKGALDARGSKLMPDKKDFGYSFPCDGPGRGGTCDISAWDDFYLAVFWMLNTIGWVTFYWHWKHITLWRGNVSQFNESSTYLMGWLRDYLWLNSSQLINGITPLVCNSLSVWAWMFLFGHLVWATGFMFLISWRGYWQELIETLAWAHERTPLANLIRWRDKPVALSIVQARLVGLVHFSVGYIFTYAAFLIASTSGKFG

pea PsaA, sequence (P05310 16-758): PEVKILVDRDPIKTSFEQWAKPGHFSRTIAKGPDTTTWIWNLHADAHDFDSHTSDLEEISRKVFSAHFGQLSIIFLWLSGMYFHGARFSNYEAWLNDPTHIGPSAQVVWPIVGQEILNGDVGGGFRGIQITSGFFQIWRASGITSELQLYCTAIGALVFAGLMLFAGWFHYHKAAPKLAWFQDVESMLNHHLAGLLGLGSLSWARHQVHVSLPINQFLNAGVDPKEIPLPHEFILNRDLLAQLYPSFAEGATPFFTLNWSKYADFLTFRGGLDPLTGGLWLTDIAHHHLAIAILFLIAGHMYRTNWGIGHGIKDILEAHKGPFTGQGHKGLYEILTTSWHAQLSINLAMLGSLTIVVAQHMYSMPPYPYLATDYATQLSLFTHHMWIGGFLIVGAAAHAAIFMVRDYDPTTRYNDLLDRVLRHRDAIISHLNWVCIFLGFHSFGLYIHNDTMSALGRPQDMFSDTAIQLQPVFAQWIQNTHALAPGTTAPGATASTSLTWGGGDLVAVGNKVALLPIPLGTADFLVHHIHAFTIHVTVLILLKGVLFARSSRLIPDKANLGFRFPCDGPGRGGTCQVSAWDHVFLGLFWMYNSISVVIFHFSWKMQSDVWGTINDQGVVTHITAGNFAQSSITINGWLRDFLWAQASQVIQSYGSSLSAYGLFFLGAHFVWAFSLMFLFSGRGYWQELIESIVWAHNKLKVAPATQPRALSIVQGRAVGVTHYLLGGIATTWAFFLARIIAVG

Regarding “Chlamydomonas reinhardtii plastocyanin (natural protein)”, the second-order rate constant of P700+ reduction by Pc (single flash absorption) in assay [1] was 6.54e+07 M⁻¹ s⁻¹.

B1: pea plastocyanin (natural protein, pea (Pisum sativum), UniProt P16002 70-168, looked up)
chain: VEVLLGASDGGLAFVPSSLEVSAGETIVFKNNAGFPHNVVFDEDEIPAGVDASKISMPEEDLLNAPGETYSVKLDAKGTYKFYCSPHQGAGMVGQVTVN
Take B1: the binding result in the assay with pea PsaA and with pea PsaB was “binds” in each case.
